Results reported in patent US20150140022A1 (FRAUNHOFER GESELLSCHAFT ZUR FOERDERUNG DER ANGEWANDTEN …, published 2015).

Assays:
CD30 [1] = biological target: T1, CD30 (human, UniProt P28908 19-595); assay: flow cytometry on L540 cells (lacking EGFR but expressing CD30), anti-His Alexa 488 detection
T1 construct: whole, on cells; Endogenous antigen on L540 cells
T1 sequence (looked up): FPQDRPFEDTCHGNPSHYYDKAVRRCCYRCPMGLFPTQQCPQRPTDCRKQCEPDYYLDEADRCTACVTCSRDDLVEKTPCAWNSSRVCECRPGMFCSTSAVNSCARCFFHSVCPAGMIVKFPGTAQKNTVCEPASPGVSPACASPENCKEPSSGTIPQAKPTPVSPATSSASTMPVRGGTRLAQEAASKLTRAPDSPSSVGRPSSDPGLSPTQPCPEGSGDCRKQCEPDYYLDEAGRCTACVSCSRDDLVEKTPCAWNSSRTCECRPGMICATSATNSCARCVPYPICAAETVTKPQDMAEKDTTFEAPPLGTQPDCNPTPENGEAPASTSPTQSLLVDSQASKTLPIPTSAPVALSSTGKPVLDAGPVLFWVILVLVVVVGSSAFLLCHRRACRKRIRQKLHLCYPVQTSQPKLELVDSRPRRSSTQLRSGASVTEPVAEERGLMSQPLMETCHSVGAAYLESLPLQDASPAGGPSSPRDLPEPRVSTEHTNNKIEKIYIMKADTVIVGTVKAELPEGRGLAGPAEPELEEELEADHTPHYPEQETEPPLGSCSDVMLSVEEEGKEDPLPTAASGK

CD30 [2] = biological target: T1, CD30; assay: flow cytometry on L540 cells (CD30+, EGFR-), direct fluorescence
Procedure: Flow cytometry analysis was carried out after incubating 4×10⁵ cells with each fusion protein for 20 min at […] in PBS. […] As a control, scFv-Ki4-SNAP was labeled with BG-VistaGreen (black curve) and its binding activity was tested against A431, L540 and CHO-K1 cells (filled gray curves). […] As a control, scFv-Ki4-SNAP labeled with BG-Ce6 (black curve) was tested against A431, L540 and CHO-K1 cells (filled gray curves).
The binding efficiency of the labeled and unlabeled fusion proteins was determined by flow cytometry using a FACSCalibur (Becton & Dickinson, Heidelberg, Germany) and CellQuest software. […] Approximately 4×10⁵ cells were incubated in 200 μL PBS containing 0.5 μg of labeled protein for 20 min on ice. The cells were then washed twice with 1.8 mL PBS in a conventional cell washer and analyzed by flow cytometry.

B1: scFv-425-SNAP (scFv)
scFv: MAQVQLQQSGAELVKPGASVKLSCKASGYTFTSHWMHWVKQRAGQGLEWIGEFNPSNGRTNYNEKFKSKATLTVDKSSSTAYMQLSSLTSEDSAVYYCASRDYDYDGRYFDYWGQGTTVTVSSGGGGSGGGGSGGGGSDIELTQSPAIMSASPGEKVTMTCSASSSVTYMYWYQQKPGSSPRLLIYDTSNLASGVPVRFSGSGSGTSYSLTISRMEAEDAATYYCQQWSSHIFTFGSGTELEIKRHHHHHH
notes: Secreted from HEK-293T cells by an Ig kappa leader and purified by its His6 tag; not shown: SNAP-tag (hAGTm, modified human O6-alkylguanine-DNA alkyltransferase, 20 kDa)
binding result (CD30 [1]): no binding (tested: 0.5 µg/ml)

B2: scFv-425-SNAP-VistaGreen (scFv)
scFv: B1 scFv
modifications: BG-Vista Green dye covalently coupled to the active site of the SNAP-tag
notes: not shown: SNAP-tag (hAGTm)
binding result (CD30 [2]): no binding (tested: 0.5 µg of labeled protein in 200 µL)

B3: scFv-425-SNAP-Ce6 (scFv)
scFv: B1 scFv
modifications: chlorin e6 through a benzyl-PEG24 linker (BG-PEG24-Ce6) covalently coupled to the active site of the SNAP-tag
notes: not shown: SNAP-tag (hAGTm)
binding result (CD30 [2]): no binding (tested: 0.5 µg of labeled protein in 200 µL)
